The target of experiment [1] is recombinant birch pollen allergen Bet v 1 (Betula verrucosa) (UniProt P15494). The experiment in a line: ELISA, IgE of non-allergic control serum on rBet v 1. In general terms: In an ELISA, binding on a coated surface is turned into a signal by an enzyme label.
Experiment [2] has the same target. Described as above. This is another data set of the same source.
The target is the same in experiment [3]. The experiment in a line: ELISA, IgE of control serum on rBet v 1 after clone 2.
The target is the same in experiment [4]. Description: ELISA, IgE of control serum on rBet v 1 after clone 4.
For experiment [5] the target is unchanged. Description: ELISA, IgE of control serum on rBet v 1 after clone 2. The source holds these as a separate data set.
The target is the same in experiment [6]. The experiment in a line: ELISA, IgE of control serum on rBet v 1 after clone 4. This is another data set of the same source.
Experiment [7] has the same target. Description: ELISA, IgE of control serum on rBet v 1 after clone 10.
Experiment [8] shares this target. The experiment in a line: ELISA, IgE of control serum on rBet v 1 after clone 12.
Experiment [9] has the same target. Description: ELISA, IgE of control serum on rBet v 1 after clone 13.
Experiment [10] shares this target. The experiment in a line: ELISA, IgE of control serum on rBet v 1 after clone 10. The source holds these as a separate data set.
The target is the same in experiment [11]. Description: ELISA, IgE of control serum on rBet v 1 after clone 12. The source holds these as a separate data set.
The target is the same in experiment [12]. The experiment in a line: ELISA, IgE of control serum on rBet v 1 after clone 13. This is another data set of the same source.

Where two headings read alike, the source gives them in different places.

Sequence of UniProt P15494 (P15494 2-160 limits assumed): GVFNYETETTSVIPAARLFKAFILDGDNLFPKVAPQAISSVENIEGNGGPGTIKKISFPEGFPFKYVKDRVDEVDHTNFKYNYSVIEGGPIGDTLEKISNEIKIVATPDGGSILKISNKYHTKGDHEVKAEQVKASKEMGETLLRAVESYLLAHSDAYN

As for “serum from a non-allergic person (antibody)”, the values for the OD without mAb in experiment [1] and in experiment [2] were 0.06 OD and 0.03 OD, respectively. Also, the OD with mAb in experiment [3] was found to be 0.09 OD; in experiment [4] it was 0.09 OD; in [5] it was 0.03 OD; in experiment [6], 0.04 OD; in [7], 0.09 OD; in experiment [8], 0.14 OD. For the same substance, the OD with mAb in experiment [9] is 0.15 OD; in experiment [10] it was 0.03 OD; in experiment [11], 0.04 OD; in [12], 0.08 OD.
